From PMC4539346

These substances were tested against human IgM (Calbiochem 401108) (human) (assay: SPR; IgM amine-coupled to a GLC sensor chip (about 10,000 RU, pH 5), ProteOn XP36; DBL4ζ proteins flowed at 600-18.75 nM, 25 μl/min, 25 °C, 10 mM Tris pH 7.4, 140 mM NaCl, 2 mM CaCl2, 0.005% Tween-20; 1:1 Langmuir kinetic model).
“recombinant TM284var1 DBL4ζ E1663R (his-tagged, E. coli) (domain or fragment)” showed a Kd of 115 nM, a koff of 0.0148 s⁻¹ and a kon of 129000 M⁻¹ s⁻¹.
“recombinant TM284var1 DBL4ζ E1663R, E1665R, R1764E, E1779K (his-tagged, E. coli) (domain or fragment)” gave a Kd of 41.2 nM, a koff of 0.00254 s⁻¹ and a kon of 61600 M⁻¹ s⁻¹.
In the case of “recombinant TM284var1 DBL4ζ E1663R, R1764E (his-tagged, E. coli) (domain or fragment)”, the Kd is reported as 33.2 nM, the koff is reported as 0.00159 s⁻¹ and the kon is reported as 49400 M⁻¹ s⁻¹.
In the case of “recombinant TM284var1 DBL4ζ R1764E (his-tagged, E. coli) (domain or fragment)”, the Kd is reported as 41.6 nM, the koff is reported as 0.00189 s⁻¹ and the kon is reported as 45100 M⁻¹ s⁻¹.
In the case of “recombinant TM284var1 DBL4ζ wild type (his-tagged, E. coli) (domain or fragment)”, the Kd is reported as 66.2 nM, the koff is reported as 0.0118 s⁻¹ and the kon is reported as 179000 M⁻¹ s⁻¹.
